Test results from publication PMC8202958 (Cell reports, 2021).

B1: GST-Cdc42 (natural protein)
chain: not shown
B2: GST-Cdc42(T17N) (natural protein)
chain: not shown
B3: GST-Cdc42(Q61L) (natural protein)
chain: not shown
B4: GST-Lsb3 (natural protein, S. cerevisiae, UniProt P43603 1-459, looked up)
chain: MGINNPIPRSLKSETKKAAKILASFVKPNQVFGADQVIPPDVLKRAKGLAIITILKAGFLFSGRAGSGVIVARLKDGTWSAPSAIAMAGAGAGGMVGIELTDFVFILNTQDAVKSFSEFGTITLGGNVSVSAGPLGRSAEAAASASAGGVAAVFAYSKSKGLFAGVSVEGSAIIERREANRKFYGDNCTAKMILSGRIRPPPAVDPLFRVLESRAFNYRPSNGGRGSFDDDEDDYYDDDDYYNDIPSSFSSTDASSTRPNTRSTRRRAQSGSRYTFDDDDDDDDYGTGYSRNSRLAPTNSGGSGGKLDDPSGASSYYASHRRSGTAQSRARSSRNRWADDEYDDYDDDYESGYRRGNGRDRTKDREVDDLSNRFSKSRISSASTPQTSQGRFTAPTSPSTSSPKAVALYSFAGEESGDLPFRKGDVITILKKSDSQNDWWTGRVNGREGIFPANYVELV
B5: GST-Ysc84 (natural protein, S. cerevisiae, UniProt P32793 1-468, looked up)
chain: MGINNPIPRSLKSETKKAAKVLRSFVKPNQVFGADQVIPPYVLKRAKGLAIITVLKAGFLFSGRAGSGVIVARLKDGTWSAPSAIAMAGAGAGGMVGVELTDFVFILNSEEAVRSFSEFGTITLGGNVSVSAGPLGRSAEAAASASTGGVSAVFAYSKSKGLFAGVSVEGSAILERREANRKFYGDNCTSKMILSGRVKVPPAADPLLRILESRAFNFTRHDHDDNASGDDFYDDGQYSDNTSHYYDDIPDSFDSTDESSTRPNTRSSRRRGMSLGSRSRYDDDYDDDGYGRGRGYGDFDSEDEDYDYGRSPNRNSSRNRGPQIDRGTKPRANTRWEDDLYDRDTEYSRPNHSGRDYDNTRGNRRGYGRERGYSLGHGPTHPSNMSNVDDLSHKMSKTGLGNESTATNSATPTAVALYNFAGEQPGDLAFKKGDVITILKKSDSQNDWWTGRTNGKEGIFPANYVRVS
B6: GST-Sla1(1–420aa, W41S) (domain or fragment, S. cerevisiae, UniProt P32790 1-420, looked up)
chain: MTVFLGIYRAVYAYEPQTPEELAIQEDDLLYLLQKSDIDDSWTVKKRVIGSDSEEPVGLVPSTYIEEAPVLKKVRAIYDYEQVQNADEELTFHENDVFDVFDDKDADWLLVKSTVSNEFGFIPGNYVEPENGSTSKQEQAPAAAEAPAATPAAAPASAAVLPTNFLPPPQHNDRARMMQSKEDQAPDEDEEGPPPAMPARPTATTETTDATAAAVRSRTRLSYSDNDNDDEEDDYYYNSNSNNVGNHEYNTEYHSWNVTEIEGRKKKKAKLSIGNNKINFIPQKGTPHEWSIDKLVSYDNEKKHMFLEFVDPYRSLELHTGNTTTCEEIMNIIGEYKGASRDPGLREVEMASKSKKRGIVQYDFMAESQDELTIKSGDKVYILDDKKSKDWWMCQLVDSGKSGLVPAQFIEPVRDKKHTE
B7: GST-Sla1(1–420aa, W108S) (domain or fragment, S. cerevisiae, UniProt P32790 1-420, looked up)
chain: MTVFLGIYRAVYAYEPQTPEELAIQEDDLLYLLQKSDIDDWWTVKKRVIGSDSEEPVGLVPSTYIEEAPVLKKVRAIYDYEQVQNADEELTFHENDVFDVFDDKDADSLLVKSTVSNEFGFIPGNYVEPENGSTSKQEQAPAAAEAPAATPAAAPASAAVLPTNFLPPPQHNDRARMMQSKEDQAPDEDEEGPPPAMPARPTATTETTDATAAAVRSRTRLSYSDNDNDDEEDDYYYNSNSNNVGNHEYNTEYHSWNVTEIEGRKKKKAKLSIGNNKINFIPQKGTPHEWSIDKLVSYDNEKKHMFLEFVDPYRSLELHTGNTTTCEEIMNIIGEYKGASRDPGLREVEMASKSKKRGIVQYDFMAESQDELTIKSGDKVYILDDKKSKDWWMCQLVDSGKSGLVPAQFIEPVRDKKHTE

Target: T1, MBP-Ecm25-N-term+RhoGAP (1–360aa) (S. cerevisiae, UniProt P32525 1-360)
T1 sequence (looked up): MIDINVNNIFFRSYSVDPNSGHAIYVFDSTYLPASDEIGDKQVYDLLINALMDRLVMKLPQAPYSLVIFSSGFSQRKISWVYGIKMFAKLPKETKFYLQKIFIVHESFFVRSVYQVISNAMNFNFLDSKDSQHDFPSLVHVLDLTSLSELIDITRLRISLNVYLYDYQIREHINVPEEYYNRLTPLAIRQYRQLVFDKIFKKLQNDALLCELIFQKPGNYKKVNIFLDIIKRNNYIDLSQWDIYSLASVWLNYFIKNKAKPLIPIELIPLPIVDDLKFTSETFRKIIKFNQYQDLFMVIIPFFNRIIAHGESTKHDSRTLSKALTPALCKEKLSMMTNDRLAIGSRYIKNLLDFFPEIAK
Assay: pull-down

Binding result, binds:
B1
B2
B3

Target: T2, MBP-Ecm25-FL (full length, 1–599aa) (S. cerevisiae, UniProt P32525 1-599)
T2 sequence (looked up): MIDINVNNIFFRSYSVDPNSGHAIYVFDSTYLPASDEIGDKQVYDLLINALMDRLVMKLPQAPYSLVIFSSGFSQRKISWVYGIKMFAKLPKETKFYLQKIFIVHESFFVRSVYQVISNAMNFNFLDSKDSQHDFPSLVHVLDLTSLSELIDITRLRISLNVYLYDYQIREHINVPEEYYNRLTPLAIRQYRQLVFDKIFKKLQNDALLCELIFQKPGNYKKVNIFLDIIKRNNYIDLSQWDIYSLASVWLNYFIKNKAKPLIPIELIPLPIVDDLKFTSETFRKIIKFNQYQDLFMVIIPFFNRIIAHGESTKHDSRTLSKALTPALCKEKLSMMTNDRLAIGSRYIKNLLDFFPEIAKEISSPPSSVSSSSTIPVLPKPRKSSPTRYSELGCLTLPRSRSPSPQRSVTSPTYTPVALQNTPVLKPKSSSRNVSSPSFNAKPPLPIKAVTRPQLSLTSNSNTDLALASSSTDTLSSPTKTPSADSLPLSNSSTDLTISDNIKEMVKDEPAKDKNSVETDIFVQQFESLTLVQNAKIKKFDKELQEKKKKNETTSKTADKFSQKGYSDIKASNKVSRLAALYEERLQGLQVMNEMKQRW
Assay: pull-down

Binding result, binds:
B4
B5
B6
B7
